According to CN115386006A (SHANGHAI XIANGYAO BIOLOGICAL TECH CO LTD, dated 2022):
Where a chain is given by its changes, count along the chain named. One block for each binder: values may come before it.

Biological target: T1, 人GPRC5D (human G protein-coupled receptor family C group 5 member D) (human, UniProt Q9NZD1 1-345)
T1 construct: also called huGPRC5D; hGPRC5D
Test: flow cytometry, scFv supernatant on HEK293-GPRC5D-ZSGreen1 and H929 cells, APC anti-6xHis

T1 sequence (Q9NZD1 whole entry): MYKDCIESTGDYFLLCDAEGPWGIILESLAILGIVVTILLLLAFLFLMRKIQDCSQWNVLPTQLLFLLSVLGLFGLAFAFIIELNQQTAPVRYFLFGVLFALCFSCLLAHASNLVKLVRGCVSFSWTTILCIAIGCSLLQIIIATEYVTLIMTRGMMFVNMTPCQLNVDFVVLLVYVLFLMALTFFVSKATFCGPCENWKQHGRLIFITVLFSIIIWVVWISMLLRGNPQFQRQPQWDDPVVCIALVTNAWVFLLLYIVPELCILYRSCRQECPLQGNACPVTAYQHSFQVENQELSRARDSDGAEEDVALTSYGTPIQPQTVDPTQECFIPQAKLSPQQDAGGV

B1: HTS0371 scFv (scFv, V domains shown)
VH: EVQLQQSGPELVKPGASVKMSCKASGYTFTSYVMHWVKQKPGQGLEWIGYINPYNDGTKYNEKFKGKATLTSDKSSSTAYMELSSLTSEDSAVYYCARGGKLNWYFDVWGAGTTVTVSS
VL: NIVMTQSPASLAVSLGQRATISCRASESVDSYGNSFMHWYQQKPGQPPKLLIYLASNLESGVPARFSGSGSRTDFTLTIDPVEADDAATYYCQQNNEDPYTFGGGTKLEIN
notes: Tested as one scFv chain in E. coli supernatant, found with an anti-6xHis antibody
binding result: binds

B3: HTS0374 scFv (scFv, V domains shown)
VH: QVQLQQSGPELVKPGTSMKISCKASGYSFTGYTVNWVKQSHGKNLEWIGLINPYNGGTTYTPKFKDKATLTVDKSSSTAYMELLSLTSEDSAVYYCTRGGFYRYDFDFWGQGTSLTVSS
VL: EIQMTQSPSSLSASLGERVSLTCRASQDIGSSLNWLQQEPDGTIKRLIYATSSLDSGVPKRFSGSRSGSDYSLTISSLESEDFVDYYCLQYASSPYTFGGGTKLEMK
notes: as for B1
binding result: binds

B4: HTS0370 scFv (scFv, V domains shown)
VH: EVQLQQSGAELMKPGASVKISCKATGYTFSSYWMEWVKQRPGLGLEWIGQILPGSSYTNYNDKFKGKATFTADTSSNTAYMQLSSLTSEDSAVYYCAKKGGPIYYGNRPFYYAMDYWGQGTSVTVSS
VL: NIMMTQTPKFLLVSAGDRVTITCKASQSVSNDVAWYQQKPGQSPKLQIYYASNRYTGVPDRFTGSGYGTDFTFTISTVQAEDLAVYFCQQDYSSPLTFGAGTKLEIK
notes: as for B1
binding result: binds

B5: HTS0372 scFv (scFv, V domains shown)
VH: EVQLQQSGPELVKPGASMKISCKASGYSFTGYTMNWVKQSHGKNLEWIGLINPYNGRTIYNQKFKGKATLTVDKSSSTAYMELLSLTSEDSAVYYCARVALRYAMDYWGQGTSLTVSS
VL: DIVMTQSQKFMSTSVGDRVSVTCKASQNVGTNVAWYQQKPGQSPKALIYSASYRYSGVPDRFTGSGSGTDFTLTISNVQSEDLAEYFCQQYNSYPLTFGAGTKLEIN
notes: as for B1
binding result: binds

Second part, the binder after the results:

binding result: binds
B2: HTS0373 scFv (scFv, V domains shown)
VH: B3 VH with Q1E, T16A, T30A, L115V
VL: DILMTQSPSSLSASLGERVSLTCRASQEISGYLSWLQQKPDGTIKRLIYAASTLDSGVPKRFSGSRSGSDYSLTISSLESEDFADYYCLQYASYPFTFGSGTKLEMK
notes: as for B1

binding result: binds
B6: HTS0375 scFv (scFv, V domains shown)
VH: B5 VH
VL: B5 VL with D1S, R18K, N28S, G30Y, A46S, S56N, L96V, N107K
notes: as for B1
